From patent publication US20220340657A1 (L AND L BIO CO LTD NINGBO CHINA, published 2022)
Residue numbers refer to the chain shown, from its start. Read-outs that look alike come from different tables or passages of the source. Blank lines part the entries; values can stand above or below the binder they belong to.

Experiments:
human LAG-3-his [1] = target: T1, human LAG-3-his (human, UniProt P18627 23-422); experiment: ELISA on hLAG-3
T1 construct: range 23-422; also called hLAG-3-his; hLAG-3
T1 sequence: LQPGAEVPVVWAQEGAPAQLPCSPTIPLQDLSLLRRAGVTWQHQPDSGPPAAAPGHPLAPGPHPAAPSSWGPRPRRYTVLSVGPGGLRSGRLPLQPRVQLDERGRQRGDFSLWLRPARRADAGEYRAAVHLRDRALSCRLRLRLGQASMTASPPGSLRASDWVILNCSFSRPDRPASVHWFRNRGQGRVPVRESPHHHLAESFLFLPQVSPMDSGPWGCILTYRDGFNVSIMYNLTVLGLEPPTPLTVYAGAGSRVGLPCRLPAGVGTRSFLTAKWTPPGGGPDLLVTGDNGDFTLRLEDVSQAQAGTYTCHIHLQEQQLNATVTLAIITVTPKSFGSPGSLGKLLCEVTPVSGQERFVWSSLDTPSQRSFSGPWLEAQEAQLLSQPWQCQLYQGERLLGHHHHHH
Method: After discarding the liquid, a blocking solution of 5% skimmed milk (Bright skimmed milk powder) diluted with PBS was added at 230 μl per well, followed by incubating at 37° C. for 3 hours or 4° C. overnight (16-18 hours) for blocking. Subsequently, the blocking solution was discarded, and the micropiate was washed 5 times with PBST buffer (pH 7.4 PBS containing 0.05% tweeen-20). Then 50 μl/well of the supernatant (containing the antibody to be tested) or a starting concentration of 10 μg/ml of the antibody to be tested, which was diluted 5 times in gradient, was added, followed by incubating the mixture for 1 hour at 37° C. […] After washing the microplate 5 times with PBST, 50 μl/well TIMB chromogenic substrate (KPL, Cat. No.: 52-00-03) was added, and then incubated for […] at room temperature. Finally, 50 μl/well of 1 M H₂SO₄ was added to stop the reaction. The absorbance value at 450 nm was read by […] GO microplate reader (ThermoFisher, Cat. No.: 51119200). The clones with high affinity were selected according to the OD value or the EC₅₀ value was calculated (for antibodies with known concentrations).

bio-LAG3-mFc [2] = target: T2, bio-LAG3-mFc (human, UniProt P18627 23-450, biotin-labelled); experiment: blocking ELISA, LAG-3 on Daudi cells
T2 construct: also called hLAG-3
T2 sequence (looked up): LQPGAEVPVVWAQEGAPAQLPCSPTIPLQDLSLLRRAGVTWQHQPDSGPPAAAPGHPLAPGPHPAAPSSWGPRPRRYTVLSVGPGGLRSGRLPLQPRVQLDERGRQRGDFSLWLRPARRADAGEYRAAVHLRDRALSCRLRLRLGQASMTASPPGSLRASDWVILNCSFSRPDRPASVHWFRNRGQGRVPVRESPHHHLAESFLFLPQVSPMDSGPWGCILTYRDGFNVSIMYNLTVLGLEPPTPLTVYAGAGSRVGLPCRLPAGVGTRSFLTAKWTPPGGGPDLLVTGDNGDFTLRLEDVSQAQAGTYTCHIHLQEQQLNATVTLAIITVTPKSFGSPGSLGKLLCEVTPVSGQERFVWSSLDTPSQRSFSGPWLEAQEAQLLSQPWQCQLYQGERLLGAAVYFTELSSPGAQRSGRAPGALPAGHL

bio-LAG3-mFc [3] = target: T2, bio-LAG3-mFc; experiment: blocking ELISA, LAG-3 on Daudi cells; remark: listed apart in the source
[4] = target: T3, human LAG-3 on CHO-K1 cells (hLAG-3+ cells) (human, UniProt P18627 23-525); experiment: cell ELISA on fixed CHO-K1 hLAG-3+ cells
T3 construct: whole, on cells; Cells fixed in the cell ELISA; also called CHO-K1hLAG-3+ cell strain
T3 sequence (looked up): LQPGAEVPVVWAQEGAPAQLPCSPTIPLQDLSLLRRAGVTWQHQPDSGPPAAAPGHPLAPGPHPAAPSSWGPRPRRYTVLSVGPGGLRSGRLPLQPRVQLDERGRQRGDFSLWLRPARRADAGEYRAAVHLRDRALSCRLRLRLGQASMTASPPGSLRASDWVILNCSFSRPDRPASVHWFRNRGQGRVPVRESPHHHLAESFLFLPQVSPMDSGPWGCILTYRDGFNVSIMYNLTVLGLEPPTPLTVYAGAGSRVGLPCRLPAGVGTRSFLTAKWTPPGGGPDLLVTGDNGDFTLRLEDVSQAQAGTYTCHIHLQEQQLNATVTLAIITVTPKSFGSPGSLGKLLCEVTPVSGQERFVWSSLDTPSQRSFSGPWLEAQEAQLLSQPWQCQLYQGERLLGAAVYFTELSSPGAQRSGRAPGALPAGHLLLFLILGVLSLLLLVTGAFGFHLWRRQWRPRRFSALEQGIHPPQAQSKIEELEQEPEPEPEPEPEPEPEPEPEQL
Method: After washing with PBS (BasalMedia Biology, Cat. No.: B320) once, 5% milk was added with 230 μl per well, and the microplate was incubated for 2 hours at 37° C. for blocking, and then was washed three times with PBST. After washing, each well was added with 50 μl sample (the samples were 5-fold serially diluted with an initial concentration of 10 μg/ml). The microplate was then incubated for 1 hour at 37° C. and washed 5 times with PBST. […] After washing the microplate 5 times with PBST, 50 μl/well TMB (Sunnodic, Cat. No.: TTMB-1000-01) was added to the microplate for color development. Finally, 50 μl/well of 1M H₂SO₄ was added to stop the reaction. The microplate was then read by a microplate reader (MultiskanGO Thermo, model 511919200), and the data were analyzed using Graphpad prism 5.

human LAG-3-his [5] = target: T1, human LAG-3-his; experiment: Biacore T200, antibody captured on Protein A, LAG-3-his in solution
Method: First, Protein A (Thermo Pierce, Cat. No.: 21181) was coupled to the biosensor chip CMS (GE, Cat. No.: BR-4005-30) using pH 7.4 running buffer HBS-EP+ (10 mM HEPES, 150 mM NaCl, 3 mM EDTA, and 0.05% P20). The chip was activated with a freshly prepared 50 mM NHS (N-hydroxysuccinimide) and 200 mM EDC (1-ethyl-3-(3-dimethylaminopropyl) carbodiimide hydrochloride) followed by injection of 10 μg/ml Protein A prepared with 10 mM NaAc (pH4.0). […] The flow rate was […], binding time was 180 s, and dissociation time was 300 s, After the experiment, the chip was washed for 30 s with 10 mM Glycine-HCl (pH 1.5) at a flow rate of 30 μl/min. The experimental data were fitted with the 1:1 Langmuir model using the software of Biacore T200 evaluation version 3.0 (GE), and the value of affinity KD was obtained.

EC50 (human LAG-3-his [1]): 0.119 nM
IC50 (bio-LAG3-mFc [2]): 1.64 nM
IC50 (bio-LAG3-mFc [3]): 2.7 nM
EC50 [4]: 0.2 nM
Kd (human LAG-3-his [5]): 0.168 nM
B1: humanized anti-human LAG-3 antibody Ab2317 (antibody, human IgG4 S228P, kappa, V domains shown)
VH: QVQLVQSGAEVKKPGASVKVSCKASGYTFTDYEMHWVKQAPGQGLEWIGGIDPETEGIAYNQKFRGRATLTADKSTSTAYMELRSLRSDDTAVYYCTNSNYYGGREAWFAYWGQGTLVTVSS
VL: DIQMTQSPSSLSASVGDRVTITCRASQDIGSSLNWYQQKPGKAPKRLIYATSSLDSGVPSRFSGSRSGSDFTLTISSLQPEDFATYYCLQYVTSPLTFGGGTKVEIKR
notes: LG2317 / LG2343, human kappa / hIgG4

EC50 (human LAG-3-his [1]): 0.142 nM
IC50 (bio-LAG3-mFc [2]): 1.76 nM
IC50 (bio-LAG3-mFc [3]): 3.6 nM
EC50 [4]: 0.19 nM
Kd (human LAG-3-his [5]): 0.19 nM
B2: humanized antibody Ab2325 (antibody, human IgG4 S228P, kappa, V domains shown)
VH: B1 VH with I48M, L70M, A72T, K74T, T97A
VL: B1 VL
notes: LG2317 / LG2348, human kappa / hIgG4
